Results as given in publication PMC5015840.

Biological target: MBP-OsIAA10 (rice)

B1: RDV P2 in RDV-infected rice plants (natural protein)
chain: MAYPNDVRNVWDVYNVFRDVPNREHLIRDIRNGLVTVRNLTNMLTNMERDDQLIIAQLSNMMKSLSIGVEKAQNELSKLKTTDADRAAVLAAYQTSVLNIERNTMLLTGYFKQLVLDLTGYVGASVYPILPFMITGDQSMMVDSIKINMKNVFDDKHEQEIVLPIHPACFVSTITEDTSSVVYADGDELYSVHVRHATMTMYVNVLGETVETRQLSMIGDSIVPDDFAPSLLILRFSQDSVGEVFYLSHDNMKKFLGYGLEYTDKYSIFDVTRRVSTTRNKIPDGFCSVDGVPYLDGWFIYQPSGISADSNICAIYNSYVLDTLRYITECEVDTLRSVYDQTSSTAFSKTDVLTSSLLTMQSNISALSAATPQLANDVITFDSTDLLSLGTVLTVSNEFTADDTILSTSLAGHCQVDYSEGSPQDKSMSISVSCDSSQLASSTVHSYSADILGHGLKGDRNMNLMINVPGLMNPQKVTVDYVYSDGYKLNFASVVAPGAPFWINATLQLSVSPSAHNMLSKLTPLDNDACPGLKAQANTPVLVSMTINLDDATPALGGEVIQNCVFKIHHGDDVYSFVTDFDVISYTSTSGTNCLKLISSVDITSQLPSDMVIYVMNGSPDAAFISGDSVNMSSVDWHQSTSQTVGNYVYTTMKAYWNVTSYDVEARPYTTYVPGKVNFTAVEHADVFVDDYNTGVNSYVIVNSRIYYKGTPLYIEVPSGSFIKVSYFTSPLKNPTVDTYNAEISRNSAYLIKANASLDSVAAMLNNISNRIDAMERLMEPTRAQQIAGVVSSIGGVISLGMPLLGAIVVTIGTIISIADPDKQGIDYHSVANAFMSWCQYAAVCRYEYGLLKRGDEKLDVLSFMPKRVVSDFKNKPDVISLPELGESVLRGSSTDYLDTGINIIYNDMQLLGQGKLSDWLNKTVSKVENNAANFFERNLDKSLANKEVLPMHARVEITQTEKIGDVYRTTILYTGINEGSYLGGDVFASRLGDKNILRMNGFESGPGRFKAIVESTTEVGNFRVVDWTVSGMSRYEIYAAAGEVYPSKDPSHADVQLLYESIVRDLTTRDGSFVLKHHDVLLLPGQLDAFEELIIKNASNYQYAFIGSNCSKLCA
In the case of B1, the half-life of MBP-OsIAA10 in the cell-free degradation assay, RDV-infected against mock-inoculated rice extracts is reported as > 2 fold.
